According to patent US20100150834A1 (BURNHAM INSTITUTE, published 2010):

T1: EphB4 (receptor of Table 1) (Mus musculus (Mouse), UniProt P54761 16-539)
T1 sequence: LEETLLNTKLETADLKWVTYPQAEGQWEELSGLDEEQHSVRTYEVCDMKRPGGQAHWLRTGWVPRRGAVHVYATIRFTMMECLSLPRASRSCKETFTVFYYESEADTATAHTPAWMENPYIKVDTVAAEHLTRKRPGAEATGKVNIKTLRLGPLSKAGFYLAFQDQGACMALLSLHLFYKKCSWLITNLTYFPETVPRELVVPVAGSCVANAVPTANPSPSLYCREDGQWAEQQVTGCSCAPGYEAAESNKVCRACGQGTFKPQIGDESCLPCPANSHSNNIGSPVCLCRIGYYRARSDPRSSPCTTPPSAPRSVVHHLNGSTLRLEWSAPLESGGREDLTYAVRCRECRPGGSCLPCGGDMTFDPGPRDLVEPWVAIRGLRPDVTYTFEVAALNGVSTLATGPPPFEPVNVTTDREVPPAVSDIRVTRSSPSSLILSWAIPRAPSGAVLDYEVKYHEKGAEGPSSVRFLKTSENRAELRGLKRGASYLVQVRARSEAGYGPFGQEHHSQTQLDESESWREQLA


What follows are binders tested against EphB1 (receptor of Table 1) (assay: EphB receptor specificity panel (% binding)).

Binder	% Binding
WHRYPDPRMLPT (Panned on EphB2) [WHRYPDPRMLPT peptide (SEQ ID NO:7)]	54%
SHKFPGPPSWMS (Panned on EphB1) [SHKFPGPPSWMS peptide (SEQ ID NO:4)]	88%
SHWPVLPFAHWQ (Panned on EphB2) [SHWPVLPFAHWQ peptide (SEQ ID NO:12)]	98%
GPVERAWRPDLI (Panned on EphB4) [GPVERAWRPDLI peptide (SEQ ID NO:30)]	1%
NHWPTQPYAIPI (Panned on EphB2) [NHWPTQPYAIPI peptide (SEQ ID NO:15)]	18%
EFFTWRPTYYGI (Panned on EphB4) [EFFTWRPTYYGI peptide (SEQ ID NO:23)]	16%
FSPQGPAARNFA (Panned on EphB4) [FSPQGPAARNFA peptide (SEQ ID NO:25)]	13%
DHWRVSPYSLLY (Panned on EphB2) [DHWRVSPYSLLY peptide (SEQ ID NO:13)]	100%
EWYMKFPPEHYF (Panned on EphB4) [EWYMKFPPEHYF peptide (SEQ ID NO:19)]	22%
GPVSKAWQETET (Panned on EphB4) [GPVSKAWQETET peptide (SEQ ID NO:31)]	13%
WHWTIEPFAITS (Panned on EphB2) [WHWTIEPFAITS peptide (SEQ ID NO:8)]	99%
THWKFQPWALVT (Panned on EphB1) [THWKFQPWALVT peptide (SEQ ID NO:5)]	86%
DALNDWLLFRPW (Panned on EphB4) [DALNDWLLFRPW peptide (SEQ ID NO:20)]	0%
SHVGPIMRAWAP (Panned on EphB4) [SHVGPIMRAWAP peptide (SEQ ID NO:28)]	22%
DHNHNLYNPWRL (Panned on EphB4) [DHNHNLYNPWRL peptide (SEQ ID NO:21)]	9%
LPHGPVAAAWDA (Panned on EphB4) [LPHGPVAAAWDA peptide (SEQ ID NO:26)]	2%
TTLSQLPKSTWL (Panned on EphB1) [TTLSQLPKSTWL peptide (SEQ ID NO:2)]	100%

Each binder was assayed against EphB2 (receptor of Table 1) (assay: EphB receptor specificity panel (% binding)).

Binder	% Binding
WHRYPDPRMLPT (Panned on EphB2) [WHRYPDPRMLPT peptide (SEQ ID NO:7)]	100%
SHKFPGPPSWMS (Panned on EphB1) [SHKFPGPPSWMS peptide (SEQ ID NO:4)]	100%
SHWPVLPFAHWQ (Panned on EphB2) [SHWPVLPFAHWQ peptide (SEQ ID NO:12)]	100%
GPVERAWRPDLI (Panned on EphB4) [GPVERAWRPDLI peptide (SEQ ID NO:30)]	2%
NHWPTQPYAIPI (Panned on EphB2) [NHWPTQPYAIPI peptide (SEQ ID NO:15)]	100%
EFFTWRPTYYGI (Panned on EphB4) [EFFTWRPTYYGI peptide (SEQ ID NO:23)]	12%
FSPQGPAARNFA (Panned on EphB4) [FSPQGPAARNFA peptide (SEQ ID NO:25)]	8%
DHWRVSPYSLLY (Panned on EphB2) [DHWRVSPYSLLY peptide (SEQ ID NO:13)]	97%
EWYMKFPPEHYF (Panned on EphB4) [EWYMKFPPEHYF peptide (SEQ ID NO:19)]	23%
GPVSKAWQETET (Panned on EphB4) [GPVSKAWQETET peptide (SEQ ID NO:31)]	13%
WHWTIEPFAITS (Panned on EphB2) [WHWTIEPFAITS peptide (SEQ ID NO:8)]	100%
THWKFQPWALVT (Panned on EphB1) [THWKFQPWALVT peptide (SEQ ID NO:5)]	100%
DALNDWLLFRPW (Panned on EphB4) [DALNDWLLFRPW peptide (SEQ ID NO:20)]	0%
SHVGPIMRAWAP (Panned on EphB4) [SHVGPIMRAWAP peptide (SEQ ID NO:28)]	6%
DHNHNLYNPWRL (Panned on EphB4) [DHNHNLYNPWRL peptide (SEQ ID NO:21)]	8%
LPHGPVAAAWDA (Panned on EphB4) [LPHGPVAAAWDA peptide (SEQ ID NO:26)]	15%
TTLSQLPKSTWL (Panned on EphB1) [TTLSQLPKSTWL peptide (SEQ ID NO:2)]	0%

Each binder was assayed against EphB3 (receptor of Table 1) (assay: EphB receptor specificity panel (% binding)).

Binder	% Binding
WHRYPDPRMLPT (Panned on EphB2) [WHRYPDPRMLPT peptide (SEQ ID NO:7)]	31%
SHKFPGPPSWMS (Panned on EphB1) [SHKFPGPPSWMS peptide (SEQ ID NO:4)]	10%
SHWPVLPFAHWQ (Panned on EphB2) [SHWPVLPFAHWQ peptide (SEQ ID NO:12)]	9%
GPVERAWRPDLI (Panned on EphB4) [GPVERAWRPDLI peptide (SEQ ID NO:30)]	1%
NHWPTQPYAIPI (Panned on EphB2) [NHWPTQPYAIPI peptide (SEQ ID NO:15)]	22%
EFFTWRPTYYGI (Panned on EphB4) [EFFTWRPTYYGI peptide (SEQ ID NO:23)]	29%
FSPQGPAARNFA (Panned on EphB4) [FSPQGPAARNFA peptide (SEQ ID NO:25)]	11%
DHWRVSPYSLLY (Panned on EphB2) [DHWRVSPYSLLY peptide (SEQ ID NO:13)]	1%
EWYMKFPPEHYF (Panned on EphB4) [EWYMKFPPEHYF peptide (SEQ ID NO:19)]	23%
GPVSKAWQETET (Panned on EphB4) [GPVSKAWQETET peptide (SEQ ID NO:31)]	14%
WHWTIEPFAITS (Panned on EphB2) [WHWTIEPFAITS peptide (SEQ ID NO:8)]	22%
THWKFQPWALVT (Panned on EphB1) [THWKFQPWALVT peptide (SEQ ID NO:5)]	5%
DALNDWLLFRPW (Panned on EphB4) [DALNDWLLFRPW peptide (SEQ ID NO:20)]	10%
SHVGPIMRAWAP (Panned on EphB4) [SHVGPIMRAWAP peptide (SEQ ID NO:28)]	2%
DHNHNLYNPWRL (Panned on EphB4) [DHNHNLYNPWRL peptide (SEQ ID NO:21)]	9%
LPHGPVAAAWDA (Panned on EphB4) [LPHGPVAAAWDA peptide (SEQ ID NO:26)]	2%
TTLSQLPKSTWL (Panned on EphB1) [TTLSQLPKSTWL peptide (SEQ ID NO:2)]	1%

The binders below were run against T1, EphB4 (receptor of Table 1) (assay: EphB receptor specificity panel (% binding)).

Binder	% Binding
WHRYPDPRMLPT (Panned on EphB2) [WHRYPDPRMLPT peptide (SEQ ID NO:7)]	13%
SHKFPGPPSWMS (Panned on EphB1) [SHKFPGPPSWMS peptide (SEQ ID NO:4)]	9%
SHWPVLPFAHWQ (Panned on EphB2) [SHWPVLPFAHWQ peptide (SEQ ID NO:12)]	6%
GPVERAWRPDLI (Panned on EphB4) [GPVERAWRPDLI peptide (SEQ ID NO:30)]	100%
NHWPTQPYAIPI (Panned on EphB2) [NHWPTQPYAIPI peptide (SEQ ID NO:15)]	22%
EFFTWRPTYYGI (Panned on EphB4) [EFFTWRPTYYGI peptide (SEQ ID NO:23)]	100%
FSPQGPAARNFA (Panned on EphB4) [FSPQGPAARNFA peptide (SEQ ID NO:25)]	100%
DHWRVSPYSLLY (Panned on EphB2) [DHWRVSPYSLLY peptide (SEQ ID NO:13)]	0%
EWYMKFPPEHYF (Panned on EphB4) [EWYMKFPPEHYF peptide (SEQ ID NO:19)]	100%
GPVSKAWQETET (Panned on EphB4) [GPVSKAWQETET peptide (SEQ ID NO:31)]	100%
WHWTIEPFAITS (Panned on EphB2) [WHWTIEPFAITS peptide (SEQ ID NO:8)]	20%
THWKFQPWALVT (Panned on EphB1) [THWKFQPWALVT peptide (SEQ ID NO:5)]	0%
DALNDWLLFRPW (Panned on EphB4) [DALNDWLLFRPW peptide (SEQ ID NO:20)]	100%
SHVGPIMRAWAP (Panned on EphB4) [SHVGPIMRAWAP peptide (SEQ ID NO:28)]	100%
DHNHNLYNPWRL (Panned on EphB4) [DHNHNLYNPWRL peptide (SEQ ID NO:21)]	100%
LPHGPVAAAWDA (Panned on EphB4) [LPHGPVAAAWDA peptide (SEQ ID NO:26)]	100%
TTLSQLPKSTWL (Panned on EphB1) [TTLSQLPKSTWL peptide (SEQ ID NO:2)]	0%

These binders were tested against EphB6 (receptor of Table 1) (assay: EphB receptor specificity panel (% binding)).

Binder	% Binding
WHRYPDPRMLPT (Panned on EphB2) [WHRYPDPRMLPT peptide (SEQ ID NO:7)]	15%
SHKFPGPPSWMS (Panned on EphB1) [SHKFPGPPSWMS peptide (SEQ ID NO:4)]	0%
SHWPVLPFAHWQ (Panned on EphB2) [SHWPVLPFAHWQ peptide (SEQ ID NO:12)]	10%
GPVERAWRPDLI (Panned on EphB4) [GPVERAWRPDLI peptide (SEQ ID NO:30)]	3%
NHWPTQPYAIPI (Panned on EphB2) [NHWPTQPYAIPI peptide (SEQ ID NO:15)]	0%
EFFTWRPTYYGI (Panned on EphB4) [EFFTWRPTYYGI peptide (SEQ ID NO:23)]	17%
FSPQGPAARNFA (Panned on EphB4) [FSPQGPAARNFA peptide (SEQ ID NO:25)]	11%
DHWRVSPYSLLY (Panned on EphB2) [DHWRVSPYSLLY peptide (SEQ ID NO:13)]	1%
EWYMKFPPEHYF (Panned on EphB4) [EWYMKFPPEHYF peptide (SEQ ID NO:19)]	30%
GPVSKAWQETET (Panned on EphB4) [GPVSKAWQETET peptide (SEQ ID NO:31)]	16%
WHWTIEPFAITS (Panned on EphB2) [WHWTIEPFAITS peptide (SEQ ID NO:8)]	45%
THWKFQPWALVT (Panned on EphB1) [THWKFQPWALVT peptide (SEQ ID NO:5)]	0%
DALNDWLLFRPW (Panned on EphB4) [DALNDWLLFRPW peptide (SEQ ID NO:20)]	16%
SHVGPIMRAWAP (Panned on EphB4) [SHVGPIMRAWAP peptide (SEQ ID NO:28)]	6%
DHNHNLYNPWRL (Panned on EphB4) [DHNHNLYNPWRL peptide (SEQ ID NO:21)]	7%
LPHGPVAAAWDA (Panned on EphB4) [LPHGPVAAAWDA peptide (SEQ ID NO:26)]	4%
TTLSQLPKSTWL (Panned on EphB1) [TTLSQLPKSTWL peptide (SEQ ID NO:2)]	0%

What follows are binders tested against EphB2 (receptor of Table 1) (assay: inhibition of ephrin-B2 AP binding to EphB2 (panning receptor)).

Binder	IC50
WHWTIEPFAITS (Panned on EphB2) [WHWTIEPFAITS peptide (SEQ ID NO:8)]	> 100 µM

Each binder was assayed against T1, EphB4 (receptor of Table 1) (assay: inhibition of ephrin-B2 AP binding to EphB4 (panning receptor)).

Binder	IC50
FSPQGPAARNFA (Panned on EphB4) [FSPQGPAARNFA peptide (SEQ ID NO:25)]	> 600 µM
EWYMKFPPEHYF (Panned on EphB4) [EWYMKFPPEHYF peptide (SEQ ID NO:19)]	> 600 µM
DALNDWLLFRPW (Panned on EphB4) [DALNDWLLFRPW peptide (SEQ ID NO:20)]	> 100 µM
DHNHNLYNPWRL (Panned on EphB4) [DHNHNLYNPWRL peptide (SEQ ID NO:21)]	~200 µM
